Here are results for three molecules from PMC8582585, “An HLA-A*11:01-Binding Neoantigen from Mutated NPM1 as Target for TCR Gene Therapy in AML” (Cancers, 2021).

One experiment addresses HLA-A*02:01 (HLA-A2) (Homo sapiens, UniProt P04439, D140Y/D185E/D98H/E176V/E277Q/G131W/G231S/I119V/I121R/I166T/I218V/L300P/L318F/N151K/N90K/P208A/P217A/Q86G/Q94H/R138H/R169H/T345S). The following applies: cited from earlier work. From the text: In this study, we investigated whether […] is also a neoantigen that can be targeted by TCR gene therapy. We isolated various T-cells for […] and cloned the TC ...

The next experiment addresses T1, HLA-A*11:01 (HLA-A11) (Homo sapiens, UniProt P04439, A114D/D185E/E176A/F33Y/L180Q/S129P/T187R).
T1 construct: soluble HLA molecules mixed with a fluorescein-labeled peptide; made in house; host or cells: Escherichia coli
In words: Competition-based peptide-HLA class I binding assay, HLA-A11.

The target of a further experiment is T2, HLA-A*03:01 (HLA-A3) (Homo sapiens, UniProt P04439).
T2 construct: soluble HLA molecules mixed with a fluorescein-labeled peptide; made in house; host or cells: Escherichia coli
Put plainly: Competition-based peptide-HLA class I binding assay, HLA-A3.

For experiment [1], the target named is soluble HLA-A*11:01 (heavy chain with β2M). Put plainly: competition-based peptide-HLA class I binding assay (gel-filtration HPLC with fluorescence detection); 25 pmol HLA heavy chain, 25 pmol β2M, 100 fmol KVFPC(Fl)ALINK and 10-fold serial dilutions of competitor peptide in 100 µL; 100 mM phosphate, 75 mM NaCl, 1 mM CHAPS, pH 7; 24 h at RT; IC50 = 50% reduction of the fluorescent pHLA-complex peak.

In experiment [2] the target is soluble HLA-A*03:01 (heavy chain with β2M). Described as above.

One may read the IC50 as the concentration at which inhibition is half-maximal. Low readings indicate higher potency, high ones lower potency.

Peptide text beside a SMILES is read from it.

Turning to CLAVEEVSL, in the experiment with HLA-A*02:01 (HLA-A2), the HLA-A2 binding result is “HLA-A*02:01 (HLA-A2)-binding”. For `CC(C)C[C@H](NC(=O)[C@H](CO)NC(=O)[C@@H](NC(=O)[C@H](CCC(=O)O)NC(=O)[C@H](CCC(=O)O)NC(=O)[C@@H](NC(=O)[C@H](C)N)C(C)C)C(C)C)C(=O)N[C@@H](CCCNC(=N)N)C(=O)N[C@@H](CCCCN)C(=O)O` (H-AVEEVSLRK-OH), the results for the IC50 on HLA-A*11:01 (HLA-A11) and on HLA-A*03:01 (HLA-A3) were 50.9 nM and 1330 nM, respectively.

B1: dNPM1 … peptide (peptide)
peptide: AVEEVSLRK
Regarding B1, the IC50 in experiment [1] stood at 50.9 nM; in experiment [2], 1330 nM.
